B1: CL-437492 (antibody, V domains shown)
VH: QEQLVESGGGVVQPGNSLRLSCVASGFTFSNHGMHWVRQAPGKGLEWVAIIWYDGSQKFYSDSVKGRFTISRDNSKNTLYLQMNSLRAEDTAIYYCARVDWSGNDWGWFDPWGQGTLVTVSS
VL: EIVLTQSPDTLSLSPGERATLSCRASQTLSSRHLAWYQQKPGQAPRLLIYGASSRATGIPDRFSGSGSGTDFTLTINRLEPEDFAVFYCQQYGRLWTFGQGTKVEIK
B2: CL-437899 (antibody, V domains shown)
VH: QEQLVESGGGVVQPGRSLRLSCEVSGFTFSNHGLHWVRQAPGKGLEWVAIIWYDGSNKFYAESVKGRFTISRDNSKNRMYLEMNSLRVEDSAVYYCVRAYSRSSSDYKYGMDVWGQGTTVTVSS
VL: DIQMTQSPSTLSASVGDRVIITCRASQSISSWLAWYQQRPGKAPELLIYKASSLETGVPSRFSGSGSGTEFTLTISSLQPDDFATYFCQQYSSYWTFGQGTKVEIK
B3: CL-438096 (antibody, V domains shown)
VH: QVVLVESGGGVVQPGRSLRLSCEASGFIFSSRGMHWVRQTPGKGLEWVAIIWYDGSNKFYADSVKGRFTISRDNSKNTLYLQMNSLRAEDTAVYYCARSYRTSLDKKYGMDVWGQGTTVTVSS
VL: DIQMTQSPSTLSASVGDRVTITCRASQSISSWLAWYQQKPGKAPKLLIYKASSLESGVPSRFSGSGSGTEFTLTISSLHPDDFATYFCQQYNSYWTFGQGTKVEIK
B4: CL-437862 (antibody, V domains shown)
VH: QVQLVESGGGVVQPGRSLRLSCAASGFTFSNSGMHWVRQVPGKGLEWVAIIWYDGGNKYYADSVKGRFTISRDNSKNTLYLQMNSLRAEDTAVYYCARAYYDILTSYDKDCCYGMDVWGQGTTVTVSS
VL: not shown
B5: CL-437934 (antibody, V domains shown)
VH: QVQLVASGGAVVQPGRSLRLSCAASGFTFSNSGMHWVRQAPGQGLEWVAIIWYDGGNKYYADSVKGRFTISRDNSKNTLYLQMNSLRAEDTAVYYCVRAYYEILTTYNKDCCYGMDVWGQGTTVTVSS
VL: not shown
B6: CL-438145 (antibody, V domains shown)
VH: QVQLVESGGGVVQPGRSLRLSCAASGFTFSDYGMHWVRQAPGKGLEWVAIIWYDGSNKYYAASVKDRFIISRDNFKNTLYLQMNSLRAEDTAVYYCARVNFDDSGSWDYWGQGTLATVSS
VL: DIQMTQSPSTLSASVGDRVTITCRASQNINTRLAWYQQKVGTAPKLLIYTASSLESGVPSRFSGSGSGTEFTLTISSLQPDDFATYYCQQYYRYWTFGQGTKVEIK
B7: CL-437907 (antibody, V domains shown)
VH: QVQLVESGGGVVQPGRSLRLSCVASGFTFSHSGMHWVRQTPGKGLEWVAIIWHDGSIKYYVESVKGRFTISRDNSKNTLYLEMRSLRAEDTAVYFCVRSYSESLYDKYGMDVWGQGTTVTVSS
VL: DIQMTQSPSTLSASVGDRVTISCRASQSISSWLAWFQQKPGKAPKLLIYAASSLQSGVPSRFSGSGSGTDFTLTISSLQPDDFATYYCQQFNSYWTFGQGTKVEVK
B8: CL-437762 (antibody, V domains shown)
VH: QVQLVESGGGVVQPGRSLRLSCAASGFTFSNYGMYWVRQAPGKGLEWVAVIWYDGSNKYYADSVKGRFTISRDNSKNTLYLQMNSLRAEDTAFYYCARPQYSGSGSYFDYWGQGTLVTVSS
VL: not shown
B9: CL-437092 (antibody, V domains shown)
VH: QVQLVESGGGVVQPGGSLRLSCAASGFTLSSFGIHWVRQAPGKGLEWVALIWHDGSMKYYADSVKGRFTISRDNSKNTVDIQMNSLRVEDTAVYYCARPGIGSPGDHYTMDVWGHGTTVTVSS
VL: not shown
B10: CL-437716 (antibody, V domains shown)
VH: QVHLVESGGGVVQPGRSLRLSCAASGFIFSNSGMHWVRQVPGKGLEWVAIIWYDGSNKYYADSVKGRFTISRDNSKNTLYLQMNSLRAEDTAVYYCVRAYSSSSSYYYGMDVWGQGTTVTVSS
VL: not shown

Target: recombinant full-length PfCSP (Plasmodium falciparum circumsporozoite protein, strain NF54) (Plasmodium falciparum NF54, UniProt P19597)
Sequence (P19597 20-375): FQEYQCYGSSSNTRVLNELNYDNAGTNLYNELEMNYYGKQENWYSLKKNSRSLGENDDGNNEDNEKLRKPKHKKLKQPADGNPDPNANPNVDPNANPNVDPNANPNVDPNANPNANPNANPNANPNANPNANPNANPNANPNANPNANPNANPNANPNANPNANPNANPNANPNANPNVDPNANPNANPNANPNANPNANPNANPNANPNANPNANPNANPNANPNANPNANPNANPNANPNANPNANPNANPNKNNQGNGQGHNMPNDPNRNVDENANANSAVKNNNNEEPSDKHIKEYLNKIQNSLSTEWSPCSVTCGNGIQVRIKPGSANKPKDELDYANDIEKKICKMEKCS

Binding result, binds:
B1
B2
B3
B4
B5
B6
B7
B8
B9
B10
